Data on 9 molecules can be found in US20220162320A1 (published 2022).

In assay [1] the target is T1, HLA-PEPTIDE target G2: HLA-A*01:01_…, recombinant soluble complex (human, enzymatically biotinylated (BirA)). Kind of assay: BLI.
The target of assay [2] is T1, HLA-PEPTIDE target G2: HLA-A*01:01_…, …. Kind of assay: BLI. The source holds these as a separate data set. On the technique in general: BLI is a label-free optical method that tracks binding on a fibre tip over time.
Assay [3] has as its target T2, CD3 (reagent of the affinity experiments of Example 18) (UniProt P07766 23-126).
T2 chain: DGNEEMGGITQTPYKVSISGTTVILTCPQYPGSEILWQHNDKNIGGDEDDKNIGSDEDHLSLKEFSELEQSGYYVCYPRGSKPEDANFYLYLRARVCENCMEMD
Kind of assay: BLI.

For assay [4], the target named is T2, CD3 (reagent of the affinity …). Kind of assay: BLI.
For assay [5] the target is unchanged. The assay can be described thus: BLI; IgG analyte, apparent KD (bivalent), avid.
The target is the same in assay [6]. Kind of assay: BLI; aCD3 IgG load.
The target is the same in assay [7]. Kind of assay: BLI; aCD3 IgG analyte, apparent KD (bivalent), avid.
Assay [8] shares this target. The assay can be described thus: BLI; aCD3 IgG analyte.
Assay [9] has as its target T1, HLA-PEPTIDE target G2: HLA-A*01:01_…, …. The assay can be described thus: BLI; avid; apparent KD (bivalent).
Assay [10] has as its target T2, CD3 (reagent of the affinity …). Kind of assay: BLI; avid; apparent KD (bivalent).
Assay [11] addresses T1, HLA-PEPTIDE target G2: HLA-A*01:01_…, …. Kind of assay: BLI. The source holds these as a separate data set.
The target in assay [12] is T2, CD3 (reagent of the affinity …). Kind of assay: BLI.
Assay [13] has as its target T1, HLA-PEPTIDE target G2: HLA-A*01:01_…, …. Kind of assay: BLI; apparent KD (bivalent), avid.
The target is the same in assay [14]. The assay can be described thus: BLI. The source holds these as a separate data set.
Assay [15] concerns the target T2, CD3 (reagent of the affinity …). The assay can be described thus: BLI.
Assay [16] deals with T1, HLA-PEPTIDE target G2: HLA-A*01:01_…, …. The assay can be described thus: BLI. The source holds these as a separate data set.
Assay [17] concerns the target T2, CD3 (reagent of the affinity …). Kind of assay: BLI.
Assay [18] concerns the target T1, HLA-PEPTIDE target G2: HLA-A*01:01_…, …. Kind of assay: BLI. The source holds these as a separate data set.
The target of assay [19] is T2, CD3 (reagent of the affinity …). Kind of assay: BLI.
The target in assay [20] is T1, HLA-PEPTIDE target G2: HLA-A*01:01_…, …. The assay can be described thus: BLI; apparent KD (bivalent), avid. This is another data set of the same source.
Assay [21] deals with T2, CD3 (reagent of the affinity …). Kind of assay: BLI; apparent KD (bivalent), avid.

B1: 3-G2(1H11)-OKT3 (bispecific antibody)
chain: not shown
heavy: not shown
light: QIVLTQSPAIMSASPGEKVTMTCSASSSVSYMNWYQQKSGTSPKRWIYDTSKLASGVPAHFRGSGSGTSYSLTISGMEAEDAATYYCQQWSSNPFTFGSGTKLEINRTVAAPSVFIFPPSDEQLKSGTASVVCLLNNFYPREAKVQWKVDNALQSGNSQESVTEQDSKDSTYSLSSTLTLSKADYEKHKVYACEVTHQGLSSPVTKSFNRGEC
In the case of B1, the Kd in assay [1] amounted to 24.8 nM.

B2: 3-G2(1H11)-hOKT3 (bispecific antibody)
chain: not shown
heavy: QVQLVQSGAEVKKPGASVKVSCKASGYTFTRYTMHWVRQAPGQGLEWMGYINPSRGYTNYNQKFKDRVTLTTDKSSSTAYMELSSLRSEDTAVYYCARYYDDHYSLDYWGQGTLVTVSSASTKGPSVFPLAPSSKSTSGGTAALGCLVKDYFPEPVTVSWNSGALTSGVHTFPAVLQSSGLYSLSSVVTVPSSSLGTQTYICNVNHKPSNTKVDKRVEPKSCDKTHTCPPCPAPELLGGPSVFLFPPKPKDTLMISRTPEVTCVVVDVSHEDPEVKFNWYVDGVEVHNAKTKPREEQYQSTYRVVSVLTVLHQDWLNGKEYKCKVSNKALPAPIEKTISKAKGQPREPQVCTLPPSREEMTKNQVSLSCAVKGFYPSDIAVEWESNGQPENNYKTTPPVLDSDGSFFLVSKLTVDKSRWQQGNVFSCSVMHEALHNRFTQKSLSLSPGK
light: DIQMTQSPSSLSASVGDRVTITCSASSSVSYMNWYQQKPGKAPKRLIYDTSKLASGVPSRFSGSGSGTDFTLTISSLQPEDFATYYCQQWSSNPFTFGQGTKLEIKRTVAAPSVFIFPPSDEQLKSGTASVVCLLNNFYPREAKVQWKVDNALQSGNSQESVTEQDSKDSTYSLSSTLTLSKADYEKHKVYACEVTHQGLSSPVTKSFNRGEC
B2: the Kd in assay [2] was found to be 421 nM; in [3] it was 168 nM.

B3: hOKT3 IgG (antibody, V domains shown)
VH: QVQLVQSGAEVKKPGASVKVSCKASGYTFTRYTMHWVRQAPGQGLEWMGYINPSRGYTNYNQKFKDRVTLTTDKSSSTAYMELSSLRSEDTAVYYCARYYDDHYSLDYWGQGTLVTVSS
VL: DIQMTQSPSSLSASVGDRVTITCSASSSVSYMNWYQQKPGKAPKRLIYDTSKLASGVPSRFSGSGSGTDFTLTISSLQPEDFATYYCQQWSSNPFTFGQGTKLEIKR
Turning to B3, the Kd amounted to 268 nM in [4] and 8.44 nM in assay [5].

B4: antibody designated αCD3, in IgG format (antibody, V domains shown)
VH: EVQLVESGGGLVQPGGSLRLSCAASGFTFSTYAMNWVRQAPGKGLEWVGRIRSKYNNYATYYADSVKGRFTISRDDSKNTLYLQMNSLRAEDTAVYYCVRHGNFGDSYVSWFAYWGQGTLVTVSS
VL: QAVVTQEPSLTVSPGGTVTLTCGSSTGAVTTSNYANWVQQKPGKSPRGLIGGTNKRAPGVPARFSGSLLGGKAALTISGAQPEDEADYYCALWYSNHWVFGGGTKLTVLR
Consider B4, for which the Kd was 2.92 nM in [6], less than 1 pM in [7] and 144 nM in assay [8].

B5: 3-OKT3-G2(1H11) (antibody)
chain 1: not shown
chain 2: not shown
chain 3: MDMRVPAQLLGLLLLWLPGARCQIVLTQSPAIMSASPGEKVTMTCSASSSVSYMNWYQQKSGTSPKRWIYDTSKLASGVPAHFRGSGSGTSYSLTISGMEAEDAATYYCQQWSSNPFTFGSGTKLEINRTVAAPSVFIFPPSDEQLKSGTASVVCLLNNFYPREAKVQWKVDNALQSGNSQESVTEQDSKDSTYSLSSTLTLSKADYEKHKVYACEVTHQGLSSPVTKSFNRGEC
Consider B5, for which the Kd in assay [1] stood at 23.8 nM.

B6: 6-G2(1H11)-αCD3 (bispecific antibody)
heavy: not shown
light: QAVVTQEPSLTVSPGGTVTLTCGSSTGAVTTSNYANWVQQKPGKSPRGLIGGTNKRAPGVPARFSGSLLGGKAALTISGAQPEDEADYYCALWYSNHWVFGGGTKLTVLRTVAAPSVFIFPPSDEQLKSGTASVVCLLNNFYPREAKVQWKVDNALQSGNSQESVTEQDSKDSTYSLSSTLTLSKADYEKHKVYACEVTHQGLSSPVTKSFNRGEC
As for B6, the Kd in assay [9] was 4.53 nM; in [10], 0.828 nM; in [11] it was 215 nM; in assay [12], 5.95 nM.

B7: 4-G2(1H11)-αCD3 (bispecific antibody)
chain: not shown
heavy: QVQLVQSGAEVKKPGASVKVSCKASGYTFTNYYMHWVRQAPGQGLEWMGMINPSGGGTSYAQKFQGRVTMTRDTSTSTVYMELSSLRSEDTAVYYCARGNPWELRLDYWGQGTLVTVSSGGGGSGGGGSGGGGSGGGGSDIQMTQSPSSLSASVGDRVTITCQASQDISNYLNWYQQKPGKAPKLLIYAASSLQSGVPSRFSGSGSGTDFTLTISSLQPEDFATYYCQQYYSYPFTFGPGTKVDIKGGGGSGGGGSEVQLVESGGGLVQPGGSLRLSCAASGFTFSTYAMNWVRQAPGKGLEWVGRIRSKYNNYATYYADSVKGRFTISRDDSKNTLYLQMNSLRAEDTAVYYCVRHGNFGDSYVSWFAYWGQGTLVTVSSASTKGPSVFPLAPSSKSTSGGTAALGCLVKDYFPEPVTVSWNSGALTSGVHTFPAVLQSSGLYSLSSVVTVPSSSLGTQTYICNVNHKPSNTKVDKRVEPKSCDKTHTCPPCPAPELLGGPSVFLFPPKPKDTLMISRTPEVTCVVVDVSHEDPEVKFNWYVDGVEVHNAKTKPREEQYQSTYRVVSVLTVLHQDWLNGKEYKCKVSNKALPAPIEKTISKAKGQPREPQVCTLPPSREEMTKNQVSLSCAVKGFYPSDIAVEWESNGQPENNYKTTPPVLDSDGSFFLVSKLTVDKSRWQQGNVFSCSVMHEALHNRFTQKSLSLSPGK
light: B6 light
Take B7: the Kd in [13] amounted to 2.95 nM; in assay [14], 543 nM; in assay [15], 11.6 nM.

B8: 5-G2(1H11)-αCD3 (bispecific antibody)
chain: not shown
heavy: B7 heavy
light: B6 light
As for B8, the Kd in [16] was 28.8 nM; in assay [17] it was 20 nM.

B9: 2-G2(1H11)-αCD3 (bispecific antibody)
heavy: not shown
light: B6 light
Consider B9, for which the Kd in [18] was 82.2 nM; in assay [19], 6.02 nM; in assay [20] it was 3.41 nM; in [21], 0.696 nM.
